The source of these data is patent US6528275B1, “Substrates and inhibitors of proteolytic enzymes” (Peptide Therapeutics Limited, priority 1996, dated 2003).

The term Km denotes the concentration of substrate that gives half-maximal velocity.

What all share (assay): Der pI substrate assay with FRET peptides (fluorescence, Km, kcat/Km)
What all share (type): biochemical, house dust mite
Settings in all cases: other: purified Der pI; peptides SEQ ID Nos. 1-76; pH 8.25

Substrate in data set [1]: CC(C)CC[C@H](NC(=O)[C@H](C)NC(=O)[C@H](Cc1ccc(-c2ccccc2)cc1)NC(=O)c1ccccc1N)C(=O)N[C@H](C(=O)N[C@@H](Cc1ccc(O)c([N+](=O)[O-])c1)C(=O)N[C@@H](CC(=O)O)C(N)=O)[C@@H](C)O
The method, then:
(§1) Using the general techniques described above, the following compounds were prepared and assayed as potential substrates against Der pI purified as described above.
(§2) Each mixture of 20 compounds in the libraries of the apparatus described herein was screened at a concentration of 1.0 μM per compound in an assay against the cysteinyl protease Der pI.
(§3) Plate assays were carried out in 96 well plate format, using 0.1 ug of Der pI per 100 μL assay volume in each well and using 20 μM of the substrate. All assays were performed in Assay Buffer (AB; 50 mM potassium phosphate, pH 8.25 containing 1 mM ethylenediaminetetraacetic acid (EDTA) and 1 mM dithiothreitol (DTT). The Der pI enzyme is pre-activated by addition of DTT and this in incubated at room temperature for 5 min. prior to initiation of the assay. As an example for the screening methodology, each well contains a 5 μL of a 20 μM solution of the test compound in DMSO, 10 μL of a 200 μM aqueous solution of the substrate, 2, and 85 μL of Der pI in AB is added to initiate the reaction. Enzyme activity is monitored by fluorescence using 320 nm for excitation and 420 nm for the emission wavelengths using a Labsystems Fluroskan Ascent machine. Kinetic measurements were carried out using a Hitachi F-4500 Fluorescence Spectrophotometer.

Substrate in data set [2]: CCCC[C@H](NC(=O)[C@H](C)NC(=O)[C@@H](NC(=O)[C@H](CCC(=O)O)NC(=O)c1ccccc1N)C(C)C)C(=O)N[C@@H](CO)C(=O)N[C@@H](Cc1ccc(O)c([N+](=O)[O-])c1)C(=O)N[C@@H](CC(=O)O)C(N)=O
The method, then: as §1, §2, §3

Substrate in data set [3]: CC(C)CC[C@H](NC(=O)[C@H](C)NC(=O)[C@H](Cc1ccc(-c2ccccc2)cc1)NC(=O)c1ccccc1N)C(=O)N1C[C@H](O)C[C@H]1C(=O)N[C@@H](Cc1ccc(O)c([N+](=O)[O-])c1)C(=O)N[C@@H](CC(=O)O)C(N)=O
The method, then: as §1, §2, §3

Substrate in data set [4]: CC(C)CC[C@H](NC(=O)[C@H](C)NC(=O)[C@H](CC1CCCCC1)NC(=O)c1ccccc1N)C(=O)N[C@@H](CO)C(=O)N[C@@H](Cc1ccc(O)c([N+](=O)[O-])c1)C(=O)N[C@@H](CC(=O)O)C(N)=O
The method, then:
as §1, §2, §3

B1: Der pI (Dermatophagoides pteronyssinus) (protein)
chain: TNACSINGNAPAEIDLRQMRTVTPIRMQGGCGSCWAFSGVAATESAYLAYRNQSLDLAEQELVDCASQHGCHGDTIPRGIEYIQHNGVVQESYYRYVAREQSCRRPNAQRFGISNYCQIYPPNVNKIREALAQTHSAIAVIIGIKDLDAFRHYDGRTIIQRDNGYQPNYHAVNIVGYSNAQGVDYWIVRNSWDTNWGDNGYGYFAANIDLMMIEEYPYVVIL
notes: tissue SmithKline-Beecham, U.K (crude mite extract); host or cells: crude house dust mite extract
With B1, the Michaelis constant (Km) in data set [1] turned out to be 2.5 µM; in data set [2] it was 20 µM; in data set [3], 4 µM; in data set [4], 9 µM.
